# Assay results published in US20210388087A1 (Chugai, published 2021).
# Experiments:
# [1] = molecular target: T1, human CD137-Fc (human, biotin-labeled); experiment: bead ELISA on biotin-human CD137-Fc, 125 vs 0 pmol free CD3e peptide;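 note: target captured on streptavidin-coated magnetic beads, signal read as fluorescence 2 min after adding APS-5 substrate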
# T1 construct: if 90 already holds the Fc, drop the second piece; also called biotin-labeled human CD137 fused to human IgG1 Fc fragment; biotin-human CD137-Fc; not shown: human IgG1 Fc fragment
# [2] = molecular target: T1, human CD137-Fc; experiment: bead ELISA on biotin-human CD137-Fc, 0 pmol free CD3e peptide
# [3] = molecular target: T1, human CD137-Fc; experiment: bead ELISA on biotin-human CD137-Fc with 125 pmol/well free CD3e peptide as competitor;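 note: Streptavidin-coated magnetic beads in blocking buffer as the capture surface, well signal read as fluorescence 2 min after adding APS-5 substrate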
# [4] = molecular target: T2, biotin-labeled human CD137 fused to human IgG1 Fc fragment (human, UniProt Q07011 24-186, biotin-labeled); experiment: bead ELISA, 1250 ng IgG, S/N over biotin-human Fc
# T2 construct: also called human CD137-Fc; biotin-human CD137-Fc; not shown: human IgG1 Fc fragment
Binder,Signal decrease [1] [%],ELISA signal [2],ELISA signal [3],binding result [4]
"Du115/DUL008 (antibody, V domains shown) VH: QVQLVESGGGLVQPGRSLRLSCAASGFTFSNAWMHWVRQAPGKGLEWVAQIKDKANSYNTYYAPSVKGRFTISRDDSKNSIYLQMNSLKTEDTAVYYCRYVHYGSSYGFLFAGYGVDAWGQGTTVTVSS VL: DIVMTQSPLSLPVTPGEPASISCQSSEELLHANRKTYLHWYQQKPGQAPRLLIYKVQNRFSGVPDRFSGSGSGTDFTLKISRVEAEDVGVYYCAQGTATPFTFGQGTKLEIK",97,86200,2620,–
"dBBDu217 (antibody, human IgG1, V domains shown, human IgG1; GLS3000 light chain) VH: QVQLVESGGGLVQPGRSLRLSCAASGFTFSNAWMHWVRQAPGKGLEWVAQIKDRQQGYATYYAPSVKGRFTISRDDSKNSIYLQMNSLKTEDTAVYYCRFVHYHLAGYGYYGVDAWGQGTTVTVSS VL: DIVMTQSPLSLPVTPGEPASISCRSSQSLVHSNRNTYLHWYQQKPGQAPRLLIYKVSNRFSGVPDRFSGSGSGTDFTLKISRVEAEDVGVYYCGQGTQVPYTFGQGTKLEIK",–,–,–,binds
"dBBDu139 (antibody, human IgG1, V domains shown, human IgG1; GLS3000 light chain) VH: QVQLVESGGGLVQPGRSLRLSCAASGFTFSNAWMHWVRQAPGKGLEWVAQIKDRGNAYNAYYAESVKGRFTISRDDSKNSIYLQMNSLKTEDTAVYYCRFVHYRHPLLHIQYGVDAWGQGTTVTVSS VL: DIVMTQSPLSLPVTPGEPASISCRSSQSLVHSNRNTYLHWYQQKPGQAPRLLIYKVSNRFSGVPDRFSGSGSGTDFTLKISRVEAEDVGVYYCGQGTQVPYTFGQGTKLEIK",–,–,–,binds
"dBBDu217 (antibody, V domains shown, Human IgG1; light chain GLS3000 (kappa)) VH: QVQLVESGGGLVQPGRSLRLSCAASGFTFSNAWMHWVRQAPGKGLEWVAQIKDRQQGYATYYAPSVKGRFTISRDDSKNSIYLQMNSLKTEDTAVYYCRFVHYHLAGYGYYGVDAWGQGTTVTVSS VL: DIVMTQSPLSLPVTPGEPASISCRSSQSLVHSNRNTYLHWYQQKPGQAPRLLIYKVSNRFSGVPDRFSGSGSGTDFTLKISRVEAEDVGVYYCGQGTQVPYTFGQGTKLEIK",87.3,19100,2420,–
"dBBDu174 (antibody, V domains shown, Human IgG1; light chain GLS3000 (kappa)) VH: QVQLVESGGGLVQPGRSLRLSCAASGFTFSSAWMHWVRQAPGKGLEWVAQIKDRASAYNAYYAESVKGRFTISRDDSKNSIYLQMNSLKTEDTAVYYCRYVHYPSYVSFLPYYGVDAWGQGTTVTVSS VL: DIVMTQSPLSLPVTPGEPASISCRSSQSLVHSNRNTYLHWYQQKPGQAPRLLIYKVSNRFSGVPDRFSGSGSGTDFTLKISRVEAEDVGVYYCGQGTQVPYTFGQGTKLEIK",60.8,4800,1880,–
"dBBDu139 (antibody, V domains shown, Human IgG1; light chain GLS3000 (kappa)) VH: QVQLVESGGGLVQPGRSLRLSCAASGFTFSNAWMHWVRQAPGKGLEWVAQIKDRGNAYNAYYAESVKGRFTISRDDSKNSIYLQMNSLKTEDTAVYYCRFVHYRHPLLHIQYGVDAWGQGTTVTVSS VL: DIVMTQSPLSLPVTPGEPASISCRSSQSLVHSNRNTYLHWYQQKPGQAPRLLIYKVSNRFSGVPDRFSGSGSGTDFTLKISRVEAEDVGVYYCGQGTQVPYTFGQGTKLEIK",79.6,9440,1920,–
"dBBDu199 (antibody, V domains shown, Human IgG1; light chain GLS3000 (kappa)) VH: QVQLVESGGGLVQPGRSLRLSCAASGFTFSNAWMHWVRQAPGKGLEWVAQIKDKQSGYNTYYAPSVKGRFTISRDDSKNSIYLQMNSLKTEDTAVYYCHYVHYASASTVLPAFGVDAWGQGTTVTVSS VL: DIVMTQSPLSLPVTPGEPASISCRSSQSLVHSNRNTYLHWYQQKPGQAPRLLIYKVSNRFSGVPDRFSGSGSGTDFTLKISRVEAEDVGVYYCGQGTQVPYTFGQGTKLEIK",94.2,40900,2370,–
"dBBDu179 (antibody, V domains shown, Human IgG1; light chain GLS3000 (kappa)) VH: QVQLVESGGGLVQPGRSLRLSCAASGFTFSNAWMHWVRQAPGKGLEWVAQIKDRSNQYATYYAPSVKGRFTISRDDSKNSIYLQMNSLKTEDTAVYYCHYVHYASASTVLPAFGVDAWGQGTTVTVSS VL: DIVMTQSPLSLPVTPGEPASISCRSSQSLVHSNRNTYLHWYQQKPGQAPRLLIYKVSNRFSGVPDRFSGSGSGTDFTLKISRVEAEDVGVYYCGQGTQVPYTFGQGTKLEIK",95.7,61000,2620,–
"dBBDu222 (antibody, V domains shown, Human IgG1; light chain GLS3000 (kappa)) VH: QVQLVESGGGLVQPGRSLRLSCAASGFTISSAWMHWVRQAPGKGLEWVAQIKDRANGYAAYYAPSVKGRFTISRDDSKNSIYLQMNSLKTEDTAVYYCRYVHYATAYDGFYGFGVDAWGQGTTVTVSS VL: DIVMTQSPLSLPVTPGEPASISCRSSQSLVHSNRNTYLHWYQQKPGQAPRLLIYKVSNRFSGVPDRFSGSGSGTDFTLKISRVEAEDVGVYYCGQGTQVPYTFGQGTKLEIK",55,7190,3240,–
"dBBDu186 (antibody, V domains shown, Human IgG1; light chain GLS3000 (kappa)) VH: QVQLVESGGGLVQPGRSLRLSCAASGFTFSNAWMHWVRQAPGKGLEWVAQIKDRSNQYATYYAPSVKGRFTISRDDSKNSIYLQMNSLKTEDTAVYYCHYVHYAQASTVLPAFGVDAWGQGTTVTVSS VL: DIVMTQSPLSLPVTPGEPASISCRSSQSLVHSNRNTYLHWYQQKPGQAPRLLIYKVSNRFSGVPDRFSGSGSGTDFTLKISRVEAEDVGVYYCGQGTQVPYTFGQGTKLEIK",92.8,34800,2500,–
"dBBDu193 (antibody, V domains shown, Human IgG1; light chain GLS3000 (kappa)) VH: QVQLVESGGGLVQPGRSLRLSCAASGFTFSNAWMHWVRQAPGKGLEWVAQIKDRSNQYATYYAPSVKGRFTISRDDSKNSIYLQMNSLKTEDTAVYYCHYVHYSAASTLLPSFGVDAWGQGTTVTVSS VL: DIVMTQSPLSLPVTPGEPASISCRSSQSLVHSNRNTYLHWYQQKPGQAPRLLIYKVSNRFSGVPDRFSGSGSGTDFTLKISRVEAEDVGVYYCGQGTQVPYTFGQGTKLEIK",87.5,18200,2280,–
"dBBDu202 (antibody, V domains shown, Human IgG1; light chain GLS3000 (kappa)) VH: QVQLVESGGGLVQPGRSLRLSCAASGFTFSNAWMHWVRQAPGKGLEWVAQIKDKGNAYAAYYAPSVKGRFTISRDDSKNSIYLQMNSLKTEDTAVYYCHYVHYSAASTVLPAFGVDAWGQGTTVTVSS VL: DIVMTQSPLSLPVTPGEPASISCRSSQSLVHSNRNTYLHWYQQKPGQAPRLLIYKVSNRFSGVPDRFSGSGSGTDFTLKISRVEAEDVGVYYCGQGTQVPYTFGQGTKLEIK",84,12100,1930,–
"dBBDu204 (antibody, V domains shown, Human IgG1; light chain GLS3000 (kappa)) VH: QVQLVESGGGLVQPGRSLRLSCAASGFTFSNAWMHWVRQAPGKGLEWVAQIKDRSNNYATYYAESVKGRFTISRDDSKNSIYLQMNSLKTEDTAVYYCHYVHYASASTVLPAFGVDAWGQGTTVTVSS VL: DIVMTQSPLSLPVTPGEPASISCRSSQSLVHSNRNTYLHWYQQKPGQAPRLLIYKVSNRFSGVPDRFSGSGSGTDFTLKISRVEAEDVGVYYCGQGTQVPYTFGQGTKLEIK",95.7,43700,1880,–
"dBBDu196 (antibody, V domains shown, Human IgG1; light chain GLS3000 (kappa)) VH: QVQLVESGGGLVQPGRSLRLSCAASGFTFSNAWMHWVRQAPGKGLEWVAQIKDRGNAYNAYYAESVKGRFTISRDDSKNSIYLQMNSLKTEDTAVYYCHYVHYASASTVLPAFGVDAWGQGTTVTVSS VL: DIVMTQSPLSLPVTPGEPASISCRSSQSLVHSNRNTYLHWYQQKPGQAPRLLIYKVSNRFSGVPDRFSGSGSGTDFTLKISRVEAEDVGVYYCGQGTQVPYTFGQGTKLEIK",93.3,33100,2220,–
"dBBDu205 (antibody, V domains shown, Human IgG1; light chain GLS3000 (kappa)) VH: QVQLVESGGGLVQPGRSLRLSCAASGFTFSNAWMHWVRQAPGKGLEWVAQIKDRSQLYAAYYAPSVKGRFTISRDDSKNSIYLQMNSLKTEDTAVYYCHYVHYASASTVLPAFGVDAWGQGTTVTVSS VL: DIVMTQSPLSLPVTPGEPASISCRSSQSLVHSNRNTYLHWYQQKPGQAPRLLIYKVSNRFSGVPDRFSGSGSGTDFTLKISRVEAEDVGVYYCGQGTQVPYTFGQGTKLEIK",95.2,45200,2190,–
"dBBDu173 (antibody, V domains shown, Human IgG1; light chain GLS3000 (kappa)) VH: QVQLVESGGGLVQPGRSLRLSCAASGFTFSNAWMHWVRQAPGKGLEWVAQIKDKGNLYAAYYAPSVKGRFTISRDDSKNSIYLQMNSLKTEDTAVYYCHYVHYASAGGGLSAYGVDAWGQGTTVTVSS VL: DIVMTQSPLSLPVTPGEPASISCRSSQSLVHSNRNTYLHWYQQKPGQAPRLLIYKVSNRFSGVPDRFSGSGSGTDFTLKISRVEAEDVGVYYCGQGTQVPYTFGQGTKLEIK",68.8,6540,2040,–
"dBBDu189 (antibody, V domains shown, Human IgG1; light chain GLS3000 (kappa)) VH: QVQLVESGGGLVQPGRSLRLSCAASGFTFSNAWMHWVRQAPGKGLEWIAQIKDRSNQYATYYAPSVKGRFTISRDDSKNSIYLQMNSLKTEDTAVYYCHYVHYAQASSLLPSFGVDAWGQGTTVTVSS VL: DIVMTQSPLSLPVTPGEPASISCRSSQSLVHSNRNTYLHWYQQKPGQAPRLLIYKVSNRFSGVPDRFSGSGSGTDFTLKISRVEAEDVGVYYCGQGTQVPYTFGQGTKLEIK",92,27400,2190,–
"dBBDu183 (antibody, V domains shown, Human IgG1; light chain GLS3000 (kappa), before light chain maturation) VH: QVQLVESGGGLVQPGRSLRLSCAASGFTFSNAWMHWVRQAPGKGLEWVAQIKDKGNAYAAYYAPSVKGRFTISRDDSKNSIYLQMNSLKTEDTAVYYCHYVHYASASTVLPAFGVDAWGQGTTVTVSS VL: DIVMTQSPLSLPVTPGEPASISCRSSQSLVHSNRNTYLHWYQQKPGQAPRLLIYKVSNRFSGVPDRFSGSGSGTDFTLKISRVEAEDVGVYYCGQGTQVPYTFGQGTKLEIK",93,34000,2370,–
